Key:
MS2 coat protein [1] = assay: apparent KD of MS2 coat protein, switch ON state; designed switch direction (-1 OFF switch, 1 ON switch): -1; higher = weaker reporter binding; conditions: FMN input: 0 or 200 uM; Eterna round: R93 (includes R88 designs)
In short: (§1)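 The buffer was 100 mM Tris-HCl pH 7.5 with 80 mM KCl and 4 mM MgCl2, used without or with constant ligand. In it, RNA switches transcribed on-chip from Illumina sequencing clusters were titrated with SNAP-549-labelled MS2 coat protein in twofold steps from 0.7 or 1.5 nM to 3 µM. Apparent KD for each design is the median of its normalised cluster binding-curve fits.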

MS2 coat protein [2] = assay: apparent KD of MS2 coat protein, switch OFF state (with FMN for OFF switches, without FMN for ON switches); designed switch direction (-1 OFF switch, 1 ON switch): -1; higher = weaker reporter binding; conditions: FMN input: 0 or 200 uM; Eterna round: R93 (includes R88 designs)
In short: as §1

| Sequence | apparent KD of MS2 coat protein (MS2 coat protein [1]) | apparent KD of MS2 coat protein (MS2 coat protein [2]) |
| --- | --- | --- |
| AGCUAGUCAGGAUAUACAAACAUGUCAAAAGACGUGAAGAAACAUGAGGAUCACCCAUGUAGAAGGGACUAGCA [Mat - Exclusion 2 - JL mod - D16] | 0.0199 µM | 0.0145 µM |
| AGCUAGUCAGGAUAUACAAACAUGUCGAAAGACGUGAAGGGACAUGAGGAUCACCCAUGUAGAAGGGACUAGCA [Mod of Janderson's WEB Mod v.2] | 0.05 µM | 0.273 µM |
| AGCUAGUCAGGAUAUACGAACAGCUCAAAAGAGCUGAAGGGACAUGAGGAUCACCCAUGUAGAAGGGACUAGCA [Mat - Exclusion 2 - JL mod - D27] | 0.0245 µM | 0.0896 µM |
| AGCUAGUCAGGAUAUACGAACAUGACAAAAGACGUGAAGGGACAUGAGGAUCACCCAUGUAGAAGGGACUAGCA [74%, Web mod - With 1 less U's] | 0.0387 µM | 0.0897 µM |
| AGCUAGUGAGGAUAUACGAACAAGUAAACGGACUGUAAGGGACAUGAGGAUCACCCAUGUAGAAGGCACUAGCA [Diamond 59] | 0.0286 µM | 0.0745 µM |
| AGCUAGUGAGGAUAUACGAACACGUAACAGGACUGUAAGGGACAUGAGGAUCACCCAUGUAGAAGGCACUAGCA [Diamond 61] | 0.0339 µM | 0.077 µM |
| AGCUAGUGAGGAUAUGCGAACAUGUCAAAAGACGUGAAGGGACAUGAGGAUCACCCAUGUAGAAGGCGCUAGCA [JL 74% mod 2] | 0.033 µM | 0.0327 µM |
| AGGAGACAUGAGGAUCACCCAUGUUAGGAUAUGAACGAAAAUAAAUAAAAAUAAAAGUUCAGAAGGAACGAAAA [66%, Wbt, 9] | 0.0451 µM | 0.0452 µM |
| AGGAUGUCAGGAUAUGUGUAAAGAAUAAAACAAAUAACAACACAGAAGGGACAUGAGGAUCACCCAUGUUAAGA [May 44] | 0.0368 µM | 0.0557 µM |
| AGGGAACAUGAGGAUCACCCAUGUGAGGAUAUUGAAAAGAAAAGAAAAGAAAGAAGAACAAGAAGGUACAAGAA [Meryre Pepi I] | 0.0218 µM | 0.0248 µM |
| AGUAGAUCAGGAUAUACGUGAAAGGUCAAAGUGUCACUUCUACAUGAGGAUCACCCAUGUAGAAGGGAUCUACA [Ex2 Design 122: Not so Super Stable 9] | 0.0129 µM | 0.0124 µM |
| AGUAGUACAGGAUAUACAUGAGGAUCACCCAUGUGAAAAGAAAGUGGCGUACCACAAAGUAGAAGGGUACUACA [Mat - Exclusion 3 - JL mod - D34] | 0.0337 µM | 0.152 µM |
| AGUGAGUGAGGAUAUCACUGAAGAAUAAAAGAAAUAACGAGUGAGAAGGCACAUGAGGAUCACCCAUGUACACA [May 63] | 0.0241 µM | 0.0183 µM |
| AGUUGGCGAGGAUAUACAUGAGGAUCACCCAUGUGAAAUAAAUAAAAAAUAAAAGGGAGUAGAAGGCGCUGACA [73%, Moding Norbert Elias, 17] | 0.0436 µM | 0.0823 µM |
| AGUUGGCGAGGAUAUACAUGAGGAUCACCCAUGUGAAAUCGCGAAGAAAUAGGGAAAAGUAGAAGGCGCUGACA [Ruby 61] | 0.0116 µM | 0.0199 µM |
| AGUUGGCGAGGAUAUACAUGAGGAUCACCCAUGUGAGAGAAAAAAAGAAGAAAAAAAAGUAGAAGGCGCUGACA [Mat - Exclusion 3 - Lego mod - D43] | 0.0442 µM | 0.103 µM |
| AUAAACUGAGGAUAUACAUGAGGAUCACCCAUGUAAAAAAAGAAAUGAUCCUCAGGAAGUAGAAGGCAGAAUAA [JR_Exc003_Sub017] | 0.0132 µM | 0.0283 µM |

| Sequence | apparent KD of MS2 coat protein (MS2 coat protein [1]) | apparent KD of MS2 coat protein (MS2 coat protein [2]) |
| --- | --- | --- |
| AUAAAGAGAGGAUAUACAUGAGGAUCACCCAUGUAAGAAAUAAAAUAAAUAAAGGGAAGUAGAAGGCUCAAAUA [Denovo 2] | 0.028 µM | 0.0425 µM |
| AUAAAGUGAGGAUAUGUAAAAAUAACGAAAGUUAUAAAUAAACAGAAGGCACAUGAGGAUCACCCAUGUGAAAU [Meechl MS2 EX4 62% 2] | 0.0242 µM | 0.0225 µM |
| AUCAUGUCAGGAUAUCAGUAGUAAAAAAAAAAAAUUACUACUGAGAAGGGACAUGAGGAUCACCCAUGUCCAAA [EX4 306: Super Stable 6] | 0.0321 µM | 0.0462 µM |
| CAGGUACGAGGAUAUACAUAGAUACAGACACAUGUUCAAGUACAUGAGGAUCACCCAUGUAGAAGGCGUAUAUG [Mat - Same state - Mayanna Mod - D108] | 0.0476 µM | 0.0885 µM |
| CAGUACUGAGGAUAUACAUGAGGAUCACCCAUGUAUCCAAGCUAGGAAACUAGCACAUGUAGAAGGCAGUACUG [Ex3: 822] | 0.294 µM | 0.0345 µM |
| CAGUACUGAGGAUAUACAUGAGGAUCACCCAUGUGAUCAAGCUACGAAAGUAGCAAAAGUAGAAGGCAGUACUG [Ex3: 810] | 0.277 µM | 0.0567 µM |
| CCGAGACAUGAGGAUCACCCAUGUGAGGAUAUAGGUGUAUGCAAAAAAAAGUUAAAAACUAGAAGGCACAGAGG [JR_Exc001_Sub307] | 0.037 µM | 0.0309 µM |
| CCUGAACAUGAGGAUCACCCAUGUGAGGAUAUGAUGCGAAUAAAGAAAGAAGAAAGCAUCAGAAGGCACAUAGG [Mod of Disincluded 3 v.4] | 0.028 µM | 0.0434 µM |
| CGCAAACAUGAGGAUCACCCAUGUGAGGAUAUGUGAGCACGAGAAAGAUAAAGUGAGCACAGAAGGCACAAGCG [JR_Exclusion1_Sub6] | 0.0348 µM | 0.0273 µM |
| CGGGAGUCAGGAUAUACGAACAUGUCGCCAGAUGUCAAGGUACAUGAGGAUCACCCAUGUAGAAGGGAGGAGAG [salish99-Ex2-34] | 0.0808 µM | 0.065 µM |
| CUAGUACAUGAGGAUCACCCAUGUCAGGAUAUUGGAUAUGCCAUGGAAAACAUGUUUACAAGAAGGGACUAUAG [EX1 Malc#22] | 0.0329 µM | 0.0364 µM |
| CUCAAGUAAGGAUAUGCAAGAAAAGAAGAGAAAGAAAAGAAGCAGAAGGUACAUGAGGAUCACCCAUGUAAGAA [EteRNA is fun!] | 0.0373 µM | 0.0358 µM |
| CUCAAGUUAGGAUAUAGAAGAAAAGAAGAGAAAGAAAAGAACUAGAAGGAACAUGAGGAUCACCCAUGUAAGAA [EteRNA is fun!] | 0.0312 µM | 0.0205 µM |
| CUCUAGUCAGGAUAUACAAGAAAAGAAGAGAAAGAAAAGAAGUAGAAGGGACAUGAGGAUCACCCAUGUAAGAA [EteRNA is fun!] | 0.0509 µM | 0.0482 µM |
| CUCUAGUGAGGAUAUACAAGAAAAGAAAAGAAAGAAAAGAAGUAGAAGGCACAUGAGGAUCACCCAUGUAAGAA [EteRNA is fun!] | 0.0248 µM | 0.0302 µM |
| CUCUAGUUAGGAUAUGGAAGAAAAGAAAAGAAAGAAAAGAACCAGAAGGAACAUGAGGAUCACCCAUGUAAGAA [EteRNA is fun!] | 0.0455 µM | 0.034 µM |
| CUUAUGUCAGGAUAUCAGUAGUAAAAAAAUAAAAUUACUACUGAGAAGGGACAUGAGGAUCACCCAUGUCAAAA [EX4 365: Super Stable 65] | 0.164 µM | 0.0972 µM |
